Data published in patent US20240218069A1 (LYVGEN BIOPHARMA, published 2024).
Substitutions are numbered along the chain they refer to. Values belong to the binder of their own block, whether it stands above or below them.

What was measured:
[1] = target: T1, human CD40 (human, UniProt P25942 21-277); test: FACS on CHO cells expressing human CD40 (FIG. 2D)
T1 construct: whole, on cells; also called huCD40

[2] = target: T1, human CD40; test: FACS on CHO cells expressing human CD40 (FIG. 2C)
[3] = target: T2, human B7H3 (human, UniProt Q5ZPR3 29-534); test: FACS on CHO cells over-expressing human B7H3
T2 construct: whole, on cells; CHO cells over-expressing human B7H3 (CHO-B7H3); also called CD276; cellular B7H3
T2 sequence (looked up): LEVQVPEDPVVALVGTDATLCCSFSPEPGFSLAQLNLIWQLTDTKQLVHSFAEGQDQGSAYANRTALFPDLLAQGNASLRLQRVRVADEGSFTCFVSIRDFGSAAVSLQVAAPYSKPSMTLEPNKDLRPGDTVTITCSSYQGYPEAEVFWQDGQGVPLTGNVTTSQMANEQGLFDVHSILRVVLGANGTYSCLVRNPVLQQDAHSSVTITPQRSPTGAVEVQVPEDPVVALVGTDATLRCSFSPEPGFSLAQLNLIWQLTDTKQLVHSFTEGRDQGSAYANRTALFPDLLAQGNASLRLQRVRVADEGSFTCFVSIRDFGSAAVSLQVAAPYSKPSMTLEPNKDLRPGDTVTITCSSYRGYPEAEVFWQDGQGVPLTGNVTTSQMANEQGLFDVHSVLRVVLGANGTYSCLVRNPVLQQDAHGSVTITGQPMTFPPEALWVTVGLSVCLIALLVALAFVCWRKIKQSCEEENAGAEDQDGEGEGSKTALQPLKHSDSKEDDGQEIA
Description: FACS analysis was performed to evaluate the binding properties of exemplary anti-B7H3 humanized antibodies. Briefly, CHO cells over-expressing human B7H3 were harvested using trypsin-EDTA partial digestion followed by centrifugation at 1000 g for 3 minutes. The cells were re-suspended in cold PBS-BSA (2%) at 2×10⁶/mL and aliquoted to 100 μL/tube. The anti-B7H3 humanized antibodies were serially diluted in PBS-BSA and 50 μL of each was added to the CHO-B7H3 cells. The cell were mixed and incubated at 4° C. in the dark for 2 hours, then washed with PBS-BSA twice. Secondary antibody conjugates (goat F(ab′)₂ anti-human IgG-Fc (PE), pre-adsorbed, Abcam #ab98596) at 1/500 dilution, 100 μL/well, was used to resuspend the cells. The cells were incubated 4° C. in dark for another 1 hour and washed twice with PBS-BSA, followed by fixation in 2% PFA/PBS, and then subjected to FACS analysis.
Binding of the antibodies to human B7H3 expressing CHO cells were evaluated and the mean fluorescence intensity is plotted in histograms as shown in FIGS. 1A-1C. […] However, Ly1426 (CDR grafted, without back mutation) didn't bind to cellular B7H3.

[4] = target: T1, human CD40; test: FACS on CHO cells expressing human CD40 (FIGS. 2C and 2D)

T1 sequence (P25942 21-277): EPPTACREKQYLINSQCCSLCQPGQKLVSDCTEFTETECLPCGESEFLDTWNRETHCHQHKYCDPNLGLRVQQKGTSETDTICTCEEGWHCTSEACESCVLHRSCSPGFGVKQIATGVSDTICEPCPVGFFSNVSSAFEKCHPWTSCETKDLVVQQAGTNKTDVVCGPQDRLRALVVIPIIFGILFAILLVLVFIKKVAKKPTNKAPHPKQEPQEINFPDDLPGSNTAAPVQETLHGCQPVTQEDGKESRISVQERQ

B1: Ly1579 (bispecific antibody)
heavy: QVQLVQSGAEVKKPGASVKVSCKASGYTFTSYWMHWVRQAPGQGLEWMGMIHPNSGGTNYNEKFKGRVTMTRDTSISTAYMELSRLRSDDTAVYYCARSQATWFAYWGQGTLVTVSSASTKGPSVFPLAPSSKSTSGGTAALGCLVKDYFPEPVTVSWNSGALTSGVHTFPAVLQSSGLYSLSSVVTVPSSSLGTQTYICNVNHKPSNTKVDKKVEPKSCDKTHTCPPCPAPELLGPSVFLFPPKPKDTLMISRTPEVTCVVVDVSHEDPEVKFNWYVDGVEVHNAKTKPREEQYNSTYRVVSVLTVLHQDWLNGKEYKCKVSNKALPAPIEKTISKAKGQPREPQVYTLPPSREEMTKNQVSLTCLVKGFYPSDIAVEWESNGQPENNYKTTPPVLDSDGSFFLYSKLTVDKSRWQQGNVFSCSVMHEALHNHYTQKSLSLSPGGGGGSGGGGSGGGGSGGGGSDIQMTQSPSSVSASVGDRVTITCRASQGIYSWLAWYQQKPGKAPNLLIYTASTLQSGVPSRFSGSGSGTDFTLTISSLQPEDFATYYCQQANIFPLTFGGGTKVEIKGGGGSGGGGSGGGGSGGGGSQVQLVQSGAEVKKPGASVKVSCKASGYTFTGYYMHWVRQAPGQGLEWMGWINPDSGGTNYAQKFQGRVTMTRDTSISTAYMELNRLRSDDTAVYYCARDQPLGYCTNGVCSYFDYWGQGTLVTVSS
light: EIVLTQSPATLSLSPGERATLSCRASSSVSSSYLHWYQQKPGQAPRLLIYSTSNLASGIPARFSGSGSGTDFTLTISSLEPEDFAVYYCQHYSGYPLTFGGGTKVEIKRTVAAPSVFIFPPSDEQLKSGTASVVCLLNNFYPREAKVQWKVDNALQSGNSQESVTEQDSKDSTYSLSSTLTLSKADYEKHKVYACEVTHQGLSSPVTKSFNRGEC
notes: Two-chain format; also called anti-B7H3/CD40 bi-specific antibody Ly1579
binding result [1]: binds

B2: Ly1663 (bispecific antibody)
heavy: QVQLVQSGAEVKKPGASVKVSCKASGYTFTSYVMHWVRQKPGQGLEWIGYINPYNEGTESTDKFKGRATMTSDKSTSTVYMELSSLRSEDTAVYYCASIYYGYEGTYFGVWGQGTLVTVSSASTKGPSVFPLAPSSKSTSGGTAALGCLVKDYFPEPVTVSWNSGALTSGVHTFPAVLQSSGLYSLSSVVTVPSSSLGTQTYICNVNHKPSNTKVDKKVEPKSCDKTHTCPPCPAPELLGPSVFLFPPKPKDTLMISRTPEVTCVVVDVSHEDPEVKFNWYVDGVEVHNAKTKPREEQYNSTYRVVSVLTVLHQDWLNGKEYKCKVSNKALPAPIEKTISKAKGQPREPQVYTLPPSREEMTKNQVSLTCLVKGFYPSDIAVEWESNGQPENNYKTTPPVLDSDGSFFLYSKLTVDKSRWQQGNVFSCSVMHEALHNHYTQKSLSLSPGK
light: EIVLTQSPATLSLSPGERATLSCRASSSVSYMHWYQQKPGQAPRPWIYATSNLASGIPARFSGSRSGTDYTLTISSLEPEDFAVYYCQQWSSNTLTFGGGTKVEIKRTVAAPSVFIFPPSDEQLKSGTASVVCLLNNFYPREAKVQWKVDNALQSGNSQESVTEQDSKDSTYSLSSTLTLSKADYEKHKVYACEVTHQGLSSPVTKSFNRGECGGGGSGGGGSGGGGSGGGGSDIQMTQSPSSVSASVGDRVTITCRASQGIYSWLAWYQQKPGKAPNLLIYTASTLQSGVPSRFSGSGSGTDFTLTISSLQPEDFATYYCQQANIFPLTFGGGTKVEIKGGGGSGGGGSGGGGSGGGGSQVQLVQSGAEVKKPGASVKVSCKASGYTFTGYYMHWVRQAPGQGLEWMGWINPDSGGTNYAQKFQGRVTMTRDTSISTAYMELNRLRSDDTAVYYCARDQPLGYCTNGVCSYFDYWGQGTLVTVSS
notes: Two-chain format; also called anti-B7H3/CD40 bi-specific antibody Ly1663
binding result [2]: binds

B4: Ly1581 (bispecific antibody)
heavy: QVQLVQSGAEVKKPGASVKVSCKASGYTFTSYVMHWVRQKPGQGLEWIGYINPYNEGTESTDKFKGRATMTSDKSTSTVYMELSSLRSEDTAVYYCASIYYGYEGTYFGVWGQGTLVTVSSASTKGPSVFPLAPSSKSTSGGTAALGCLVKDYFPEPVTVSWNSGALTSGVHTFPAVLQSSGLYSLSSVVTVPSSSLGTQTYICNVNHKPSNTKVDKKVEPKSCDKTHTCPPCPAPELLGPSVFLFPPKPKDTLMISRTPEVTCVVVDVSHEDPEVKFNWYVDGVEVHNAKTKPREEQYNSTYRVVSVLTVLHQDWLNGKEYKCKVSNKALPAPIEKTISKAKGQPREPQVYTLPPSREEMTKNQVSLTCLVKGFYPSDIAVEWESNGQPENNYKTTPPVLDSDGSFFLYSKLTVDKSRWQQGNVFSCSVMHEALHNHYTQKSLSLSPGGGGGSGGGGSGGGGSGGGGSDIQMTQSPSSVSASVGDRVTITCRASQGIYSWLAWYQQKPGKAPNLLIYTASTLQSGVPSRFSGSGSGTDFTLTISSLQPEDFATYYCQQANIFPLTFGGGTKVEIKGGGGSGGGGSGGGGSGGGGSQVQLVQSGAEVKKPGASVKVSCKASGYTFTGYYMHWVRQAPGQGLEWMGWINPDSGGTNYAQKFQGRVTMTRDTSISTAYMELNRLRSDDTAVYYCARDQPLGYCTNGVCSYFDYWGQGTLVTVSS
light: EIVLTQSPATLSLSPGERATLSCRASSSVSYMHWYQQKPGQAPRPWIYATSNLASGIPARFSGSRSGTDYTLTISSLEPEDFAVYYCQQWSSNTLTFGGGTKVEIKRTVAAPSVFIFPPSDEQLKSGTASVVCLLNNFYPREAKVQWKVDNALQSGNSQESVTEQDSKDSTYSLSSTLTLSKADYEKHKVYACEVTHQGLSSPVTKSFNRGEC
notes: also called anti-B7H3/CD40 bi-specific antibody Ly1581
binding result [4]: binds

B6: Ly1660 (bispecific antibody, human IgG1, kappa)
heavy: B2 heavy with S357C, T369W
chain 1: not shown
light: B4 light
chain 2: DIQMTQSPSSVSASVGDRVTITCRASQGIYSWLAWYQQKPGKAPNLLIYTASTLQSGVPSRFSGSGSGTDFTLTISSLQPEDFATYYCQQANIFPLTFGGGTKVEIKSSASTKGPSVFPLAPSSKSTSGGTAALGCLVKDYFPEPVTVSWNSGALTSGVHTFPAVLQSSGLYSLSSVVTVPSSSLGTQTYICNVNHKPSNTKVDKKVEPKSC
notes: Four-chain heterodimer format; also called anti-B7H3/CD40 bi-specific antibody Ly1660
binding result [2]: binds

Now from value to binder:

binding result [3]: no binding
B3: Ly1426 (antibody, human IgG1, kappa, V domains shown)
VH: QVQLVQSGAEVKKPGASVKVSCKASGYTFTSYVMHWVRQAPGQGLEWMGYINPYNDGTECTDKFKGRVTMTRDTSTSTVYMELSSLRSEDTAVYYCARIYYGYDGTYFGVWGQGTLVTVSS
VL: EIVLTQSPATLSLSPGERATLSCRASSSVSYMHWYQQKPGQAPRLLIYATSNLASGIPARFSGSGSGTDFTLTISSLEPEDFAVYYCQQWSSNTLTFGGGTKVEIKR
notes: also called Ly383_VH-1/Ly383_VL-1; grafted humanized antibody of Ly383

binding result [2]: binds
B5: Ly1662 (bispecific antibody)
heavy: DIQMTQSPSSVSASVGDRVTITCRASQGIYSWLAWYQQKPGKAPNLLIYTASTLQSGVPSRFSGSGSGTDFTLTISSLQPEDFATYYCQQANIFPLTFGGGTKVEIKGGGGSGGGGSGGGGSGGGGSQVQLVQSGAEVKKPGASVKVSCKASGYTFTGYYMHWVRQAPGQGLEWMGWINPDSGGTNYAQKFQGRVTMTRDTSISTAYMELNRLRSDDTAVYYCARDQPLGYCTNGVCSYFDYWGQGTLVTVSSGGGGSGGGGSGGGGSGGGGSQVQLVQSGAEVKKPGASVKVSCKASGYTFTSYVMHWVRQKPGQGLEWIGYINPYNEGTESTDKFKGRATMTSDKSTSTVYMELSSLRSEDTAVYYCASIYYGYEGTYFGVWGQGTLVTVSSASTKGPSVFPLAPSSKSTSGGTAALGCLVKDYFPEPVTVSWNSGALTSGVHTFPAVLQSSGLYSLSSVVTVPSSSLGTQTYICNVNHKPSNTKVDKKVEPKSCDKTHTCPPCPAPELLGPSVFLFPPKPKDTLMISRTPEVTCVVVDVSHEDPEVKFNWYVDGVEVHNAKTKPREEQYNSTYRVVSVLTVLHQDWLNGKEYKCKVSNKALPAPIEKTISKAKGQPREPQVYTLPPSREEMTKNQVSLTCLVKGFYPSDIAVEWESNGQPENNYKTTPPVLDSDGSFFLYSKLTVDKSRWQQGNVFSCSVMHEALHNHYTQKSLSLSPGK
light: B4 light
notes: Two-chain format; also called anti-B7H3/CD40 bi-specific antibody Ly1662

binding result [2]: binds
B7: Ly1661 (bispecific antibody, human IgG1, kappa)
heavy: B2 heavy with L354D, L371E
chain 1: not shown
light: B4 light
chain 2: B6 chain 2
notes: Four-chain heterodimer format; also called anti-B7H3/CD40 bi-specific antibody Ly1661
